Assay [1] has as its system HCV core protein expressing cells. Nature of the assay: Imaging of HCV core protein expressing cells. The assay is classed as cell-based. An excerpt: This may be because the presence of HCV core protein may “lock” lysosomes onto the LD surface during the lysosomal engulfment process, resulting in scattered distribution of lysosomes throughout the cell cytoplasm. This situation is similar to that observed in cells after prolonged treatment with oleate (see FIG. 36, top row). White arrows indicate HCV core protein (pseudo-colored in green) and lysosomes (LysoTracker; blue) in association with LDs;
FIG. 41 provides data illustrating the effect of Arl8b “DN” on HCV core distribution and interaction between lysosomes and lipid droplets.
As shown in HCV core protein expressing cells (FIG. 41, left panel), the HCV core proteins (GFP-tagged) are bound to CLDs. The core protein binding to the CLDs apparently renders persistent lysosomal interaction with CLDs (i.e. kiss without run) and thus impaired microautophagy. As explained with reference to FIG. 39, functional microautophagy includes proper lysosomal engulfment (Kiss) and termination of this process, via lysosomal “go”, “interact”, and “back” events. As detailed herein, by introducing a putative GDP-bound form or Arl8b (Arl8b^T34N) into the HCV core protein-expressing cells, microautophagy functionality may be restored (FIG. 41, right panel). […]

In assay [2] the test system is mice. Briefly: Mice fed a high fat diet for 30 days, adenoviral vector via tail vein. In kind it is in vivo. As to conditions: HFD 30 days, Adv-MG1023 10^9 pfu/mouse, 48 h; vs empty vector. An excerpt: Mice were fed with a high fat diet (HFD) for 30 days, and injected with Adv-empty vector (EV) or Adv-MG1023 expressing Arl8b^T34N via the tail vein (10^9 pfu/mouse). Forty eight hours after virus injection, mice were euthanized and dissected to collect liver tissue samples. Liver tissues were frozen fresh in Cryomatrix (ThermoScientific), and then sectioned and processed for oil red o staining. Intrahepatic liver lipid droplets in the liver sections were observed under bright field microscope (Zeiss AxioImager M2).
In FIG. 48, mice were fed with a high fat diet (HFD) for 30 days, and injected with Adv-empty vector (EV) or Adv-MG1023 vector (FIG. 46) expressing Arl8b^T34N via the tail vein (10^9 pfu/mouse). Forty eight hours after virus injection, mice were euthanized and dissected to collect liver tissues. Liver tissues were frozen fresh in Cryomatrix (ThermoScientific), and then sectioned and processed for oil red o staining. Intrahepatic liver lipid droplets in the liver sections were observed under bright field microscope (Zeiss AxioImager M2).

The test system of assay [3] is mice. Nature of the assay: High fat diet and PO gavage for 10 days (palm oil-induced NASH mouse model). The assay is classed as in vivo. As to conditions: HFD and PO gavage 10 days; in comparison with Arl8b^Q75L-treated mice. As for the experimental part:
For comparison, control mice were treated with Adv-MG1022 (a vector expressing Arl8b^Q75L) and then subjected to HFD and PO gavage for 10 days. (A) provides visceral views, and liver morphology views, of Arl8b^Q75L and Arl8b^T34N-treated mice, showing enhanced resistance to fatty liver and fat accumulation in Arl8b^T34N-treated mice. (B) provides images of liver sections stained with Oil Red O from mice subjected to a high fat diet and PO gavage for 10 days followed by treatment with Adv-MG1023 vector expressing Arl8b^T34N. For comparison, images of liver sections stained with Oil Red O obtained from mice treated with Adv-MG1022 (a vector expressing Arl8b^Q75L) and then subjected to HFD and PO gavage for 10 days are also provided.
In FIG. 49, mice were subjected to a high fat diet and PO gavage for 10 days, followed by treatment with Adv-MG1023 vector expressing Arl8b^T34N. For comparison, mice were treated with Adv-MG1022 (a vector expressing Arl8b^Q75L; FIG. 46) and then subjected to HFD and PO gavage for 10 days. These experiments may be considered as palm oil-induced NASH mouse models. FIG. 49A provides visceral views, and liver morphology views, of Arl8b^Q75L and Arl8b^T34N-treated mice, showing enhanced resistance to fatty liver and fat accumulation in Arl8b^T34N-treated mice. […]

Here are results for 1 molecule from patent publication US11298402B2, “Lysosomal degradation of lipids and proteins and method of use thereof” (University of Ottawa, priority 2015, dated 2022).

B1: Arl8b^T34N: putative GDP-bound, dominant negative Arl8b mutant (Thr-to-Asn at 34; SEQ ID NO: 12), expressed from plasmid or adenovirus Adv-MG1023; tagged forms used (protein)
chain: MLALISRLLDWFRSLFWKEEMELTLVGLQYSGKNTFVNVIASGQFSEDMIPTVGFNMRKVTKGNVTIKIWDIGGQPRFRSMWERYCRGVNAIVYMIDAADREKIEASRNELHNLLDKPQLQGIPVLVLGNKRDLPNALDEKQLIEKMNLSAIQDREICCYSISCKEKDNIDITLQWLIQHSKSRRS
modifications: GFP/RFP tags in some forms; T34N substitution, GDP-binding
notes: tagged forms used
Consider B1, for which, in assay [1], the “HCV core protein distribution on CLD” value was “displaced HCV core protein from the CLD surface” and the “lysosome association with LD surface” value is given as “effectively displace lysosomes from LD surface”. For the same molecule, in the assay with mice [2], the abdominal fat accumulation result is on record as “less abdominal fat”, the “fatty liver (Oil Red O)” value is “more resistant to fatty liver” and the obesity result is reported as “less obese”. Moreover, in the assay with mice [3], the “fatty liver disease arising from HFD” value is listed as “enhanced resistance to fatty liver disease”.
